According to FireProtDB (doi:10.1021/bi034486i):
Where “and” joins values, the source holds several entries; their conditions need not be identical. Identical values can stand only once.

Settings: Homo sapiens; pH 7.82; 20 °C; GdnHCl; CD; sodium phosphate 50 mM; whole UniProt chain shown

B1: Thioredoxin-like protein 4A wild type, P83876 (protein)
chain: MSYMLPHLHNGWQVDQAILSEEDRVVVIRFGHDWDPTCMKMDEVLYSIAEKVKNFAVIYLVDITEVPDFNKMYELYDPCTVMFFFRNKHIMIDLGTGNNNKINWAMEDKQEMVDIIETVYRGARKGRGLVVSPKDYSTKYRY
In the case of B1, the denaturant m value is reported as 2.16 kcal/mol/M and 3.24 kcal/mol/M, the “denaturant midpoint (higher = more stable)” value is reported as 3.39 M and 3.41 M and the unfolding free energy is reported as 7.32 kcal/mol and 11.1 kcal/mol.
